The values below come from patent US20150291692A1 (INNATE PHARMA, published 2015).

Assay [1] addresses T1, KIR3DL2 recombinant protein (R&D Systems) (human, UniProt P43630 28-340).
T1 construct: Bought protein; also called rec KIR3DL2; recombinant KIR3DL2-Fc fusion protein; not shown: Fc part of the bought fusion protein; not described
Description: SCK kinetic method.

Assay [2] concerns the target T2, KIR3DL2 at the surface of HUT78 Sezary Syndrome cell line (human, UniProt P43630 22-455).
T2 construct: whole, on cells; Two alleles are expressed
Description: flow cytometry competition on HUT78 cells; naked antibody titrated against 15C11-PE (5 µg/ml). In general terms: A flow cytometer gives signals particle by particle.

The target in assay [3] is T3, KIR3DL2 on fresh Sezary Syndrome cells of patients (human, UniProt P43630 22-455).
T3 construct: whole, on cells; also called SS cells
Description: flow cytometry of whole blood of a Sezary Syndrome patient, antibody + GaM-PE against CD4; upper gate (CD4+ KIR3DL2+ leukemic Sezary cells).

In assay [4] the target is T4, KIR2DS4 on transfected BWZ cells (UniProt P43632 22-304, limits assumed).
T4 construct: whole, on cells
Kind of assay: flow cytometry on transfected BWZ cells.

Assay [5] has as its target T5, KIR2DS1 on transfected BWZ cells (UniProt Q14954 22-304, limits assumed).
T5 construct: whole, on cells; also called BWZ-KIR2DS1
Description: flow cytometry on transfected BWZ cells.

The target of assay [6] is T6, KIR2DS2 on transfected BWZ cells (UniProt P43631 22-304, limits assumed).
T6 construct: whole, on cells
Kind of assay: flow cytometry on transfected BWZ cells.

Assay [7] has as its target T7, KIR2DL3 on transfected BWZ cells (UniProt P43628 22-341, limits assumed).
T7 construct: whole, on cells
Kind of assay: flow cytometry on transfected BWZ cells.

Assay [8] deals with T8, KIR2DL1 on transfected BWZ cells (UniProt P43626 22-348, limits assumed).
T8 construct: whole, on cells
Kind of assay: flow cytometry on transfected BWZ cells.

Assay [9] has as its target T9, KIR3DL1 expressed on cells (human, UniProt P43629 22-444).
T9 construct: also called HEK-293T/KIR3DL1
Description: flow cytometry on HEK KIR3DL1 cells (row HEK-KIR3DL1).

The target in assay [10] is T10, KIR3DL2 mutant M11A4 (E130S;H131S;R145S) (human, UniProt P43630 22-455).
T10 construct: Expressed on transfected HEK-293T cells; also called Number 27 (11A4)
Description: flow cytometry on HEK-293T cells transfected with the mutant; - means substantially complete loss of binding.

Assay [11] concerns the target T11, KIR3DL2 mutant M11A6 (I150A;M128A) (human, UniProt P43630 22-455).
T11 construct: Expressed on transfected HEK-293T cells; also called Number 29 (11A6)
Described as above.

In assay [12] the target is T12, KIR3DL2 mutant M11A3 (N99S;H100S;Q184A) (human, UniProt P43630 22-455).
T12 construct: Expressed on transfected HEK-293T cells; also called Number 26 (11A3)
Description: flow cytometry on HEK-293T cells transfected with the mutant; + no significant loss of binding, ± decrease.

The target in assay [13] is T13, KIR3DL2 mutant M11A5 (V147A;Q149S) (human, UniProt P43630 22-455).
T13 construct: Expressed on transfected HEK-293T cells; also called Number 28 (11A5)
The assay is described as above.

Assay [14] deals with T14, KIR3DL2 mutant M11A1 (V178A;H180S) (human, UniProt P43630 22-455).
T14 construct: Expressed on transfected HEK-293T cells; also called Number 24 (11A1); mutant 11A1
Described as above.

The target in assay [15] is T15, KIR3DL2 mutant M8 + 11 (V127I;P179T;S181T) (human, UniProt P43630 22-455).
T15 construct: Expressed on transfected HEK-293T cells; also called Number 23 (8 + 11)
The description is as above.

The target in assay [16] is T16, KIR3DL2 mutant M10 (R136K;E141K) (human, UniProt P43630 22-455).
T16 construct: Expressed on transfected HEK-293T cells; also called Number 10
The description is as above.

The target in assay [17] is T17, KIR3DL2 mutant M7 (L113V;T118R) (human, UniProt P43630 22-455).
T17 construct: Expressed on transfected HEK-293T cells; also called Number 7
The assay is described as above.

Assay [18] concerns the target T18, KIR3DL2 mutant M11 (P179T;S181T) (human, UniProt P43630 22-455).
T18 construct: Expressed on transfected HEK-293T cells; also called Number 11; mutant 11
The description is as above.

For assay [19], the target named is T19, KIR3DL2 mutant M9 (L164M;P166L;V167A) (human, UniProt P43630 22-455).
T19 construct: Expressed on transfected HEK-293T cells; also called Number 9
Described as above.

The target in assay [20] is T20, NK cells, including normal KIR3DL2+ NK cells (Homo sapiens, UniProt P43630).
T20 construct: full-length receptor on the cell surface; also called gate NK GaM PE+; KIR3DL2 on CD4-negative NK cells in the blood of the Sezary Syndrome patient
Description: flow cytometry of whole blood of a Sezary Syndrome patient, antibody + GaM-PE against CD4; lower gate (CD4-negative NK cells).

In assay [21] the target is T1, KIR3DL2 recombinant protein (R&D …). Kind of assay: SPR (Biacore T100), antibody injected over immobilised recombinant KIR3DL2, bivalent affinity, pH 7.2. Background: Surface plasmon resonance follows binding to a sensor surface in real time, without labels.

T1 sequence (P43630 28-340 A108T): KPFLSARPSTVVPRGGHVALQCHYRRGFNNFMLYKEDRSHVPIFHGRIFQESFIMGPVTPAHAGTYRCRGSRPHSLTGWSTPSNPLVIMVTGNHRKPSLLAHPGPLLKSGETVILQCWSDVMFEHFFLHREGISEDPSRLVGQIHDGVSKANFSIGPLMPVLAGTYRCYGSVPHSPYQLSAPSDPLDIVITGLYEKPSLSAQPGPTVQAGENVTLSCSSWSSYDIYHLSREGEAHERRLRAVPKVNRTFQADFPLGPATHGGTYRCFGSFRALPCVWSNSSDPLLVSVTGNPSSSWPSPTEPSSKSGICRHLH
T10 sequence (P43630 22-455 E151S/H152S/R166S): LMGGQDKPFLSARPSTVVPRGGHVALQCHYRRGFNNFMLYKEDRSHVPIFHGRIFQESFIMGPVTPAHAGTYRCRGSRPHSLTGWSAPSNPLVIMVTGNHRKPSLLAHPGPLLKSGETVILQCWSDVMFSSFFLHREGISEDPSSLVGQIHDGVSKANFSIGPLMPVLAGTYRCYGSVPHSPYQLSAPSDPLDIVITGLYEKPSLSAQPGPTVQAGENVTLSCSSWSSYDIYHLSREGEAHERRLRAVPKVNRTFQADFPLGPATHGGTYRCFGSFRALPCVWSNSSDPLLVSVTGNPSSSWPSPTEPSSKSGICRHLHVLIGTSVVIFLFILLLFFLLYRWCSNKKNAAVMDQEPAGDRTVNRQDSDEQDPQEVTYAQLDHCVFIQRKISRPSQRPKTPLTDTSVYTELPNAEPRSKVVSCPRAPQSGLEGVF
T8 sequence (P43626 22-348 limits assumed): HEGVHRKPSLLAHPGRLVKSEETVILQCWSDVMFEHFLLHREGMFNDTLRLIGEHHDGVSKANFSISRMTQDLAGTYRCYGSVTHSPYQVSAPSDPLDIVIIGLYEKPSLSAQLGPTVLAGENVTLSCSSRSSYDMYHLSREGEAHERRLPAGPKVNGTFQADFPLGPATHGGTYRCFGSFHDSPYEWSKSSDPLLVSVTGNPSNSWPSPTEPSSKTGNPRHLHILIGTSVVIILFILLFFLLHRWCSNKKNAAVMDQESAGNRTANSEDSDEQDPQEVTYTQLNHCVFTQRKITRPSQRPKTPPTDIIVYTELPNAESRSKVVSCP
T11 sequence (P43630 22-455 M149A/I171A): as the sequence (P43630 22-455 E151S/H152S/R166S) above, with M128A, S130E, S131H, S145R, I150A counted along it
T13 sequence (P43630 22-455 V168A/Q170S): as the sequence (P43630 22-455 E151S/H152S/R166S) above, with S130E, S131H, S145R, V147A, Q149S counted along it
T12 sequence (P43630 22-455 N120S/H121S/Q205A): as the sequence (P43630 22-455 E151S/H152S/R166S) above, with N99S, H100S, S130E, S131H, S145R, Q184A counted along it
T20 sequence (P43630 22-455 limits assumed): as the sequence (P43630 22-455 E151S/H152S/R166S) above, with S130E, S131H, S145R counted along it
T3 sequence (P43630 22-455): as the sequence (P43630 22-455 E151S/H152S/R166S) above, with S130E, S131H, S145R counted along it
T2 sequence (P43630 22-455): as the sequence (P43630 22-455 E151S/H152S/R166S) above, with S130E, S131H, S145R counted along it
T15 sequence (P43630 22-455 V148I/P200T/S202T): as the sequence (P43630 22-455 E151S/H152S/R166S) above, with V127I, S130E, S131H, S145R, P179T, S181T counted along it
T5 sequence (Q14954 22-304 limits assumed): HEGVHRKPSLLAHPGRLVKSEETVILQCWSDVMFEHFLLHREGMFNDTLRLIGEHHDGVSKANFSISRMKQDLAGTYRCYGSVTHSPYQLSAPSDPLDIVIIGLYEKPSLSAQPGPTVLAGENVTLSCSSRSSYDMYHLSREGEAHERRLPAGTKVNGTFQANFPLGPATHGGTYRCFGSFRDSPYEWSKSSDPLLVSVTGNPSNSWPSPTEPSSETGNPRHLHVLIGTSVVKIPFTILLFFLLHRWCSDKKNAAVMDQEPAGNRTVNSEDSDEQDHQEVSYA
T4 sequence (P43632 22-304 limits assumed): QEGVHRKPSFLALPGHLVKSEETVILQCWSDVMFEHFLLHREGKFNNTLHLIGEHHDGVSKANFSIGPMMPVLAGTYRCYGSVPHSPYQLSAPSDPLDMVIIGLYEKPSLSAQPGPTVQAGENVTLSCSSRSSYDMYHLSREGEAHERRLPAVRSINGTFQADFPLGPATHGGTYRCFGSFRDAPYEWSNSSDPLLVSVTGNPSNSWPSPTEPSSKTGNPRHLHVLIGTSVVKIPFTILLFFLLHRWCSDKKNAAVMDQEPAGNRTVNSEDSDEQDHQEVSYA
T9 sequence (P43629 22-444 limits assumed): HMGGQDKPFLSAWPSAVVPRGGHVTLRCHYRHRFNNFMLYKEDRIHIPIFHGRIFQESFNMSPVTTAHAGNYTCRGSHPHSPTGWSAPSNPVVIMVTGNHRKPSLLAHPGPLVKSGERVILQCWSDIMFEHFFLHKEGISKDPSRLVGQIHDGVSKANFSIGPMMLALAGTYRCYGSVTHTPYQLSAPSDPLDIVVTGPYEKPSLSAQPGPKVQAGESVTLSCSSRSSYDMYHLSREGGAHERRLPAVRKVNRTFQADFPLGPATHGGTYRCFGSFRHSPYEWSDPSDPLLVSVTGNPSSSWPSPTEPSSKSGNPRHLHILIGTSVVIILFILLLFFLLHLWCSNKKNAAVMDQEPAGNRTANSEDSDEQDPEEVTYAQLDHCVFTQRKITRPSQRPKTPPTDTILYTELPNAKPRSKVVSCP
T17 sequence (P43630 22-455 L134V/T139R): as the sequence (P43630 22-455 E151S/H152S/R166S) above, with L113V, T118R, S130E, S131H, S145R counted along it
T14 sequence (P43630 22-455 V199A/H201S): as the sequence (P43630 22-455 E151S/H152S/R166S) above, with S130E, S131H, S145R, V178A, H180S counted along it
T6 sequence (P43631 22-304 limits assumed): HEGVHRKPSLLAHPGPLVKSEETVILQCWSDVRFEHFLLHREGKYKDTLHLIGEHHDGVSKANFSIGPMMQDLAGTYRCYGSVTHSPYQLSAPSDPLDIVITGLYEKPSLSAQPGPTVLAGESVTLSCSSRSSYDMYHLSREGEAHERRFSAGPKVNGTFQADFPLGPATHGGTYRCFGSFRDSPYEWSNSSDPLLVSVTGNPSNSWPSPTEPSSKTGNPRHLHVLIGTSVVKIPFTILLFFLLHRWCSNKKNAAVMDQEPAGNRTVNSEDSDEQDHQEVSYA
T19 sequence (P43630 22-455 L185M/P187L/V188A): as the sequence (P43630 22-455 E151S/H152S/R166S) above, with S130E, S131H, S145R, L164M, P166L, V167A counted along it
T18 sequence (P43630 22-455 P200T/S202T): as the sequence (P43630 22-455 E151S/H152S/R166S) above, with S130E, S131H, S145R, P179T, S181T counted along it
T16 sequence (P43630 22-455 R157K/E162K): as the sequence (P43630 22-455 E151S/H152S/R166S) above, with S130E, S131H, R136K, E141K, S145R counted along it
T7 sequence (P43628 22-341 limits assumed): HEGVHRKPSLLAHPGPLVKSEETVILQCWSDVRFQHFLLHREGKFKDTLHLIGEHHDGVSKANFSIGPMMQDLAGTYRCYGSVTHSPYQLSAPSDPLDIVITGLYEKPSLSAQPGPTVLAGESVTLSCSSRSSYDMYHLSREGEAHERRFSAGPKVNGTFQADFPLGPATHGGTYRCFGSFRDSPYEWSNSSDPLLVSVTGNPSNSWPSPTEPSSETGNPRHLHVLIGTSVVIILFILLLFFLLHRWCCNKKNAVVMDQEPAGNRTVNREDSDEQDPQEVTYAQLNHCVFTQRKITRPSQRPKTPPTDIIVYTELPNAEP

B1: antibody 15C11 (antibody, mouse IgG2a, V domains shown)
VH: EVKLEESGGGLVQPGGSMKLSCAASGFTFSDAWMDWVRQSPEKGLEWVAEIRSKANNHATYYAESVKGRFTISRDDSKSSVYLRMNSLRAEDTGIYYCTGGYYPVYWGQGTLVTVSA
VL: DIQMTQSPSSLSASLGGKVTITCKASQDINKNIAWYQHKPGKGPRLLIHYTSTLQPGFPSRFSGSGSGRDYSFSISNLEPEDLATYYCLQYDNLLTFGGGTKLEIK
notes: also called M-K32-15C11; 15C11-PE (PE-labelled form)
For the molecule B1, the results for the Kd in assay [1] and in assay [21] were 0.37 nM and 0.78 nM, respectively. Also, the koff (usually the rate constant with which the complex falls apart) in assay [1] amounted to 0.00011 s⁻¹. Besides, the “IC50 (read off the curve)” value in assay [2] is about 0.4 µg/mL. For the same molecule, the “% of cells in gate CD4 GaM PE+” value in [3] came to 7.6%. Besides, the binding result in assay [4] is “no binding (tested: 10 µg/ml)”; in [5] it was “no binding (tested: 10 µg/ml)”; in assay [6], “no binding (tested: 10 µg/ml)”; in assay [7] it was “no binding (tested: 10 µg/ml)”; in [8], “no binding (tested: 10 µg/ml)”; in assay [9], “no binding”. In addition, the binding result in assay [10] was “no binding”; in assay [11] it was “no binding”; in assay [12] it was “binds”; in assay [13], “binds”; in assay [14], “binds”; in assay [15], “binds”. Further, the binding result in [16], in assay [17], in assay [18] and in assay [19] was “binds” each time. Further, the “% of cells in gate NK GaM PE+” value in assay [20] came out at 12.7%.
